Assay [1] addresses T1, HA-pVHL (UniProt P40337 1-213).
T1 construct: In the cells it sits in complexes; also called 35S-HA-pVHL; 35S-labeled pVHL
The assay is described as follows: peptide binding assay; unpublished data (16).

For assay [2], the target named is T2, pVHL (form used not given) (UniProt P40337 1-213).
T2 construct: also called wild-type pVHL
The assay is described as follows: binding to GST-ODD after phosphatase treatment; unpublished data (16).

The target in assay [3] is T3, immobilized GST-pVHL, elongin B, elongin C complexes (UniProt P40337 54-213; Q15370 1-118; Q15369 17-112).
T3 construct: also called GST-VBC; GST-VHL, elongin B, elongin C complexes
The assay can be described thus: capture of 35S-labeled protein on immobilized GST-VBC.

Assay [4] concerns the target T1, HA-pVHL. The assay can be described thus: peptide elution of HIF from anti-HA immunoprecipitates of HA-pVHL (ts20 cells); failure to displace.

Ends that are not written are not given here.

T1 sequence (P40337 whole entry): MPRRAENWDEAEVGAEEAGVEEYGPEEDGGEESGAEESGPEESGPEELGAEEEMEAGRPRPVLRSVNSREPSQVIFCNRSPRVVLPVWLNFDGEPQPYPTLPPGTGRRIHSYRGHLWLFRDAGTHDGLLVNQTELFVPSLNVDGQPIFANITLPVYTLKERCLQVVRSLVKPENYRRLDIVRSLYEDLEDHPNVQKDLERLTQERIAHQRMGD
T2 sequence (P40337 whole entry): as above

B1: biotinylated HIF (556-575) peptide with Met561 and Met568 replaced with alanine (peptide, UniProt Q16665 556-575, looked up)
peptide: DLDLEALAPYIPADDDFQLR
modifications: also: biotinylated (site not given here)
notes: Made for the mass spectrometry experiments
Turning to B1, the binding result with HA-pVHL [1] was “binds”.

B2: GST-HIF1α(530-652) produced in E. coli and preincubated with rabbit reticulocyte lysate (other, UniProt Q16665 530-652, looked up)
chain: EFKLELVEKLFAEDTEAKNPFSTQDTDLDLEMLAPYIPMDDDFQLRSFDQLSPLESSSASPESASPQSTVTVFQQTQIQEPTANATTTTATTDELKTVTKDRMEDIKILIASPSPTHIHKETT
modifications: modified by a factor in reticulocyte lysate; later examples identify the modification as hydroxylation of Pro 564
notes: range 530-652; Incubated with rabbit reticulocyte lysate for 90 min at 30° C; also called GST-ODD; not shown: glutathione S-transferase (GST) fusion partner
For the molecule B2, the binding result in assay [2] is “binds”.

B3: Pro564Ala Gal4-HA-HIF1α(530-652) (other)
chain: EFKLELVEKLFAEDTEAKNPFSTQDTDLDLEMLAAYIPMDDDFQLRSFDQLSPLESSSASPESASPQSTVTVFQQTQIQEPTANATTTTATTDELKTVTKDRMEDIKILIASPSPTHIHKETT
notes: range 530-652; also called Gal4-ODD Pro564Ala; not shown: Gal4 portion
In the case of B3, the binding result in assay [3] is “no binding”.

B4: Leu562Ala Gal4-HA-HIF1α(530-652) (other)
chain: EFKLELVEKLFAEDTEAKNPFSTQDTDLDLEMAAPYIPMDDDFQLRSFDQLSPLESSSASPESASPQSTVTVFQQTQIQEPTANATTTTATTDELKTVTKDRMEDIKILIASPSPTHIHKETT
notes: range 530-652; also called Gal4-ODD Leu562Ala; not shown: Gal4 portion
B4: in assay [3], the binding result was “no binding”.
As for DLDLEMLAAYIPMDDDFQLR (peptide, UniProt Q16665 556-575, looked up, also: biotinylated (site not given here)) [biotinylated HIF1α(556-575) Pro564Ala peptide], the binding result in the assay with HA-pVHL [4] is listed as “no binding (tested: 7 µg of peptide in 65 µl of PBS)”.

Values taken from patent US20040219635A1 (Dana-Farber, published 2004).
